In IntAct's records for PubMed 26524528:

B1: Lamin-B1 (Homo sapiens), P20700 (parent)
chain: MATATPVPPRMGSRAGGPTTPLSPTRLSRLQEKEELRELNDRLAVYIDKVRSLETENSALQLQVTEREEVRGRELTGLKALYETELADARRALDDTARERAKLQIELGKCKAEHDQLLLNYAKKESDLNGAQIKLREYEAALNSKDAALATALGDKKSLEGDLEDLKDQIAQLEASLAAAKKQLADETLLKVDLENRCQSLTEDLEFRKSMYEEEINETRRKHETRLVEVDSGRQIEYEYKLAQALHEMREQHDAQVRLYKEELEQTYHAKLENARLSSEMNTSTVNSAREELMESRMRIESLSSQLSNLQKESRACLERIQELEDLLAKEKDNSRRMLTDKEREMAEIRDQMQQQLNDYEQLLDVKLALDMEISAYRKLLEGEEERLKLSPSPSSRVTVSRASSSRSVRTTRGKRKRVDVEESEASSSVSISHSASATGNVCIEEIDVDGKFIRLKNTSEQDQPMGGWEMIRKIGDTSVSYKYTSRYVLKAGQTVTIWAANAGVTASPPTDLIWKNQNSWGTGEDVKVILKNSQGEEVAQRSTVFKTTIPEEEEEEEEAAGVVVEEELFHQQGTPRASNRSCAIM

Variants of: B1
Settings: with mlp3b_human MAP1LC3B

Row | effect of a mutation on the interaction | Variant
1 | decreasing interaction strength | MATATPVPPRMGSRAGGPTTPLSPTRLSRLQEKEELRELNDRLAVYIDKVRSLETENSALQLQVTEREEVRGRELTGLKALYETELADARRALDDTARERAKLQIELGKCKAEHDQLLLNYAKKESDLNGAQIKLREYEAALNSKDAALATALGDKKSLEGDLEDLKDQIAQLEASLAAAKKQLADETLLKVDLENRCQSLTEDLEFRKSMYEEEINETRRKHETRLVEVDSGRQIEYEYKLAQALHEMREQHDAQVRLYKEELEQTYHAKLENARLSSEMNTSTVNSAREELMESRMRIESLSSQLSNLQKESRACLERIQELEDLLAKEKDNSRRMLTDKEREMAEIRDQMQQQLNDYEQLLDVKLALDMEISAYRKLLEGEEERLKLSPSPSAAVTVSRASSSRSVRTTRGKRKRVDVEESEASSSVSISHSASATGNVCIEEIDVDGKFIRLKNTSEQDQPMGGWEMIRKIGDTSVSYKYTSRYVLKAGQTVTIWAANAGVTASPPTDLIWKNQNSWGTGEDVKVILKNSQGEEVAQRSTVFKTTIPEEEEEEEEAAGVVVEEELFHQQGTPRASNRSCAIM [S396A;R397A]
2 | decreasing interaction strength | MATATPVPPRMGSRAGGPTTPLSPTRLSRLQEKEELRELNDRLAVYIDKVRSLETENSALQLQVTEREEVRGRELTGLKALYETELADARRALDDTARERAKLQIELGKCKAEHDQLLLNYAKKESDLNGAQIKLREYEAALNSKDAALATALGDKKSLEGDLEDLKDQIAQLEASLAAAKKQLADETLLKVDLENRCQSLTEDLEFRKSMYEEEINETRRKHETRLVEVDSGRQIEYEYKLAQALHEMREQHDAQVRLYKEELEQTYHAKLENARLSSEMNTSTVNSAREELMESRMRIESLSSQLSNLQKESRACLERIQELEDLLAKEKDNSRRMLTDKEREMAEIRDQMQQQLNDYEQLLDVKLALDMEISAYRKLLEGEEERLKLSPSPSSRATVSRASSSRSVRTTRGKRKRVDVEESEASSSVSISHSASATGNVCIEEIDVDGKFIRLKNTSEQDQPMGGWEMIRKIGDTSVSYKYTSRYVLKAGQTVTIWAANAGVTASPPTDLIWKNQNSWGTGEDVKVILKNSQGEEVAQRSTVFKTTIPEEEEEEEEAAGVVVEEELFHQQGTPRASNRSCAIM [V398A]
3 | decreasing interaction strength | MATATPVPPRMGSRAGGPTTPLSPTRLSRLQEKEELRELNDRLAVYIDKVRSLETENSALQLQVTEREEVRGRELTGLKALYETELADARRALDDTARERAKLQIELGKCKAEHDQLLLNYAKKESDLNGAQIKLREYEAALNSKDAALATALGDKKSLEGDLEDLKDQIAQLEASLAAAKKQLADETLLKVDLENRCQSLTEDLEFRKSMYEEEINETRRKHETRLVEVDSGRQIEYEYKLAQALHEMREQHDAQVRLYKEELEQTYHAKLENARLSSEMNTSTVNSAREELMESRMRIESLSSQLSNLQKESRACLERIQELEDLLAKEKDNSRRMLTDKEREMAEIRDQMQQQLNDYEQLLDVKLALDMEISAYRKLLEGEEERLKLSPSPAARVTVSRASSSRSVRTTRGKRKRVDVEESEASSSVSISHSASATGNVCIEEIDVDGKFIRLKNTSEQDQPMGGWEMIRKIGDTSVSYKYTSRYVLKAGQTVTIWAANAGVTASPPTDLIWKNQNSWGTGEDVKVILKNSQGEEVAQRSTVFKTTIPEEEEEEEEAAGVVVEEELFHQQGTPRASNRSCAIM [S395A;S396A]

Continued, variant first:

Row | Variant | effect of a mutation on the interaction
4 | MATATPVPPRMGSRAGGPTTPLSPTRLSRLQEKEELRELNDRLAVYIDKVRSLETENSALQLQVTEREEVRGRELTGLKALYETELADARRALDDTARERAKLQIELGKCKAEHDQLLLNYAKKESDLNGAQIKLREYEAALNSKDAALATALGDKKSLEGDLEDLKDQIAQLEASLAAAKKQLADETLLKVDLENRCQSLTEDLEFRKSMYEEEINETRRKHETRLVEVDSGRQIEYEYKLAQALHEMREQHDAQVRLYKEELEQTYHAKLENARLSSEMNTSTVNSAREELMESRMRIESLSSQLSNLQKESRACLERIQELEDLLAKEKDNSRRMLTDKEREMAEIRDQMQQQLNDYEQLLDVKLALDMEISAYRKLLEGEEERLKLSPAPAAAVTVSRASSSRSVRTTRGKRKRVDVEESEASSSVSISHSASATGNVCIEEIDVDGKFIRLKNTSEQDQPMGGWEMIRKIGDTSVSYKYTSRYVLKAGQTVTIWAANAGVTASPPTDLIWKNQNSWGTGEDVKVILKNSQGEEVAQRSTVFKTTIPEEEEEEEEAAGVVVEEELFHQQGTPRASNRSCAIM [S393A;S395A;S396A;R397A] | decreasing interaction strength
5 | MATATPVPPRMGSRAGGPTTPLSPTRLSRLQEKEELRELNDRLAVYIDKVRSLETENSALQLQVTEREEVRGRELTGLKALYETELADARRALDDTARERAKLQIELGKCKAEHDQLLLNYAKKESDLNGAQIKLREYEAALNSKDAALATALGDKKSLEGDLEDLKDQIAQLEASLAAAKKQLADETLLKVDLENRCQSLTEDLEFRKSMYEEEINETRRKHETRLVEVDSGRQIEYEYKLAQALHEMREQHDAQVRLYKEELEQTYHAKLENARLSSEMNTSTVNSAREELMESRMRIESLSSQLSNLQKESRACLERIQELEDLLAKEKDNSRRMLTDKEREMAEIRDQMQQQLNDYEQLLDVKLALDMEISAYRKLLEGEEERLKLSPAPASRVTVSRASSSRSVRTTRGKRKRVDVEESEASSSVSISHSASATGNVCIEEIDVDGKFIRLKNTSEQDQPMGGWEMIRKIGDTSVSYKYTSRYVLKAGQTVTIWAANAGVTASPPTDLIWKNQNSWGTGEDVKVILKNSQGEEVAQRSTVFKTTIPEEEEEEEEAAGVVVEEELFHQQGTPRASNRSCAIM [S393A;S395A] | decreasing interaction strength
6 | MATATPVPPRMGSRAGGPTTPLSPTRLSRLQEKEELRELNDRLAVYIDKVRSLETENSALQLQVTEREEVRGRELTGLKALYETELADARRALDDTARERAKLQIELGKCKAEHDQLLLNYAKKESDLNGAQIKLREYEAALNSKDAALATALGDKKSLEGDLEDLKDQIAQLEASLAAAKKQLADETLLKVDLENRCQSLTEDLEFRKSMYEEEINETRRKHETRLVEVDSGRQIEYEYKLAQALHEMREQHDAQVRLYKEELEQTYHAKLENARLSSEMNTSTVNSAREELMESRMRIESLSSQLSNLQKESRACLERIQELEDLLAKEKDNSRRMLTDKEREMAEIRDQMQQQLNDYEQLLDVKLALDMEISAYRKLLEGEEERLKLSPAPAAAATVSRASSSRSVRTTRGKRKRVDVEESEASSSVSISHSASATGNVCIEEIDVDGKFIRLKNTSEQDQPMGGWEMIRKIGDTSVSYKYTSRYVLKAGQTVTIWAANAGVTASPPTDLIWKNQNSWGTGEDVKVILKNSQGEEVAQRSTVFKTTIPEEEEEEEEAAGVVVEEELFHQQGTPRASNRSCAIM [S393A;S395A;S396A;R397A;V398A] | disrupting interaction strength
